Conditions: Aspergillus oryzae (strain ATCC 42149 / RIB 40), pH 7, 25 °C, GdnHCl, CD, cacodylate 0.013 M, reversible: yes, whole UniProt chain shown

B1: Guanyl-specific ribonuclease T1 wild type, P00651 (protein)
chain: MMYSKLLTLTTLLLPTALALPSLVERACDYTCGSNCYSSSDVSTAQAAGYQLHEDGETVGSNSYPHKYNNYEGFDFSVSSPYYEWPILSSGDVYSGGSPGADRVVFNENNQLAGVITHTGASGNNFVECT
Q: For B1, which denaturant m value ((NH4)2SO4 0.15 M) is on record?
A: Its denaturant m value is 2.85 kcal/mol/M.

Q: And the “denaturant midpoint (higher = more stable)” value (shortened to “denaturant midpoint”) ((NH4)2SO4 0.15 M)?
A: The value was 3.16 M.

Q: What about the unfolding free energy ((NH4)2SO4 0.15 M) of the same protein?
A: The unfolding free energy was 9.6 kcal/mol.

Q: What about the denaturant m value ((NH4)2SO4 0.30 M) of the same protein?
A: Its denaturant m value is 2.9 kcal/mol/M.

Q: And the “denaturant midpoint” value ((NH4)2SO4 0.30 M)?
A: Its value is 3.37 M.

Q: And the unfolding free energy ((NH4)2SO4 0.30 M)?
A: The unfolding free energy was 10.3 kcal/mol.

Q: What about the denaturant m value (CsCl 0.49 M) of the same protein?
A: Its denaturant m value is 3.18 kcal/mol/M.

Q: What about the “denaturant midpoint” value (CsCl 0.49 M) of the same protein?
A: Its value is 2.81 M.

Q: What about the unfolding free energy (CsCl 0.49 M) of the same protein?
A: The unfolding free energy was 8.9 kcal/mol.

Q: And the denaturant m value (KCl 0.1 M)?
A: Its denaturant m value is 3.04 kcal/mol/M.

Q: What about the “denaturant midpoint” value (KCl 0.1 M) of the same protein?
A: Its value is 2.9 M.

Q: What about the unfolding free energy (KCl 0.1 M) of the same protein?
A: Its unfolding free energy is 8.8 kcal/mol.

Q: What about the denaturant m value (Li2SO4 0.20 M) of the same protein?
A: Its denaturant m value is 2.82 kcal/mol/M.

Q: And the “denaturant midpoint” value (Li2SO4 0.20 M)?
A: Its value is 3.16 M.

Q: What about the unfolding free energy (Li2SO4 0.20 M) of the same protein?
A: The unfolding free energy was 9.6 kcal/mol.

Q: What about the denaturant m value (Li2SO4 0.40 M) of the same protein?
A: Its denaturant m value is 2.82 kcal/mol/M.

Q: And the “denaturant midpoint” value (Li2SO4 0.40 M)?
A: Its value is 3.35 M.

Q: What about the unfolding free energy (Li2SO4 0.40 M) of the same protein?
A: Its unfolding free energy is 10.2 kcal/mol.

Q: And the denaturant m value (LiBr 0.76 M)?
A: The denaturant m value was 3.14 kcal/mol/M.

Q: What about the “denaturant midpoint” value (LiBr 0.76 M) of the same protein?
A: Its value is 2.15 M.

Q: What about the unfolding free energy (LiBr 0.76 M) of the same protein?
A: The unfolding free energy was 6.55 kcal/mol.

Q: What about the denaturant m value (LiBr 1.52 M) of the same protein?
A: Its denaturant m value is 3.41 kcal/mol/M.

Q: What about the “denaturant midpoint” value (LiBr 1.52 M) of the same protein?
A: The value was 1.48 M.

Q: And the unfolding free energy (LiBr 1.52 M)?
A: The unfolding free energy was 4.51 kcal/mol.

Q: What about the denaturant m value (LiCi 0.50 M) of the same protein?
A: The denaturant m value was 2.71 kcal/mol/M.

Q: And the “denaturant midpoint” value (LiCi 0.50 M)?
A: The value was 2.75 M.

Q: And the unfolding free energy (LiCi 0.50 M)?
A: Its unfolding free energy is 8.36 kcal/mol.

Q: And the denaturant m value (LiCi 0.99 M)?
A: Its denaturant m value is 3.13 kcal/mol/M.

Q: What about the “denaturant midpoint” value (LiCi 0.99 M) of the same protein?
A: The value was 2.57 M.

Q: What about the unfolding free energy (LiCi 0.99 M) of the same protein?
A: Its unfolding free energy is 7.8 kcal/mol.

Q: What about the denaturant m value (LiSCN 0.09 M) of the same protein?
A: The denaturant m value was 3.05 kcal/mol/M.

Q: What about the “denaturant midpoint” value (LiSCN 0.09 M) of the same protein?
A: The value was 2.72 M.

Q: And the unfolding free energy (LiSCN 0.09 M)?
A: Its unfolding free energy is 8.27 kcal/mol.

Q: What about the denaturant m value (LiSCN 0.34 M) of the same protein?
A: Its denaturant m value is 2.87 kcal/mol/M.

Q: What about the “denaturant midpoint” value (LiSCN 0.34 M) of the same protein?
A: Its value is 2.06 M.

Q: And the unfolding free energy (LiSCN 0.34 M)?
A: The unfolding free energy was 6.25 kcal/mol.

Q: What about the denaturant m value (LiSCN 0.69 M) of the same protein?
A: Its denaturant m value is 3.08 kcal/mol/M.

Q: And the “denaturant midpoint” value (LiSCN 0.69 M)?
A: Its value is 1.34 M.

Q: And the unfolding free energy (LiSCN 0.69 M)?
A: Its unfolding free energy is 4.08 kcal/mol.

Q: And the denaturant m value (NH4Cl 0.45 M)?
A: The denaturant m value was 3.02 kcal/mol/M.

Q: What about the “denaturant midpoint” value (NH4Cl 0.45 M) of the same protein?
A: Its value is 2.83 M.

Q: What about the unfolding free energy (NH4Cl 0.45 M) of the same protein?
A: The unfolding free energy was 8.5 kcal/mol.

Q: And the denaturant m value (Na2SO4 0.15 M)?
A: The denaturant m value was 2.83 kcal/mol/M.

Q: What about the “denaturant midpoint” value (Na2SO4 0.15 M) of the same protein?
A: The value was 3.12 M.

Q: And the unfolding free energy (Na2SO4 0.15 M)?
A: Its unfolding free energy is 9.49 kcal/mol.

Q: And the denaturant m value (NaBr 0.50 M)?
A: The denaturant m value was 3.42 kcal/mol/M.

Q: What about the “denaturant midpoint” value (NaBr 0.50 M) of the same protein?
A: The value was 2.53 M.

Q: And the unfolding free energy (NaBr 0.50 M)?
A: Its unfolding free energy is 7.7 kcal/mol.

Q: And the denaturant m value (NaBr 0.99 M)?
A: The denaturant m value was 2.97 kcal/mol/M.

Q: What about the “denaturant midpoint” value (NaBr 0.99 M) of the same protein?
A: Its value is 2.27 M.

Q: What about the unfolding free energy (NaBr 0.99 M) of the same protein?
A: Its unfolding free energy is 6.91 kcal/mol.

Q: And the denaturant m value (NaSCN 0.25 M)?
A: The denaturant m value was 3.11 kcal/mol/M.

Q: What about the “denaturant midpoint” value (NaSCN 0.25 M) of the same protein?
A: The value was 2.39 M.

Q: What about the unfolding free energy (NaSCN 0.25 M) of the same protein?
A: The unfolding free energy was 7.27 kcal/mol.

Q: What about the denaturant m value (NaSCN 0.49 M) of the same protein?
A: The denaturant m value was 2.93 kcal/mol/M.

Q: What about the “denaturant midpoint” value (NaSCN 0.49 M) of the same protein?
A: The value was 1.91 M.

Q: And the unfolding free energy (NaSCN 0.49 M)?
A: Its unfolding free energy is 5.8 kcal/mol.

Q: And the denaturant m value (RbCl 0.50 M)?
A: Its denaturant m value is 2.89 kcal/mol/M.

Q: And the “denaturant midpoint” value (RbCl 0.50 M)?
A: The value was 2.89 M.

Q: What about the unfolding free energy (RbCl 0.50 M) of the same protein?
A: Its unfolding free energy is 8.4 kcal/mol.

Source: FireProtDB (doi:10.1139/o86-132)
